Measured values from the supplement of paper PMC12338614.
± gives the uncertainty stated by the source.

B1: library; numbered along this chain (parent)
chain: MEVVDPQQLGMFTEGELMSVGMDTFIHRIDSTEVIYQPRRKRAKLIGKYLMGDLLGEGSYGKVKEVLDSETLCRRAVKILKKKKLRRIPNGEANVKKEIQLLRRLRHKNVIQLVDVLYNEEKQKMYMVMEYCVCGMQEMLDSVPEKRFPVCQAHGYFCQLIDGLEYLHSQGIVHKDIKPGNLLLTTGGTLKISDLGVAEALHPFAADDTCRTSQGSPAFQPPEIANGLDTFSGFKVDIWSAGVTLYNITTGLYPFEGDNIYKLFENIGKGSYAIPGDCGPPLSDLLKGMLEYEPAKRFSIRQIRQHSWFRKKHPPAEAPVPIPPSPDTKDRWRSMTVVPYLEDLHGADEDEDLFDIEDDIIYTQDFTVPGQVPEEEASHNGQRRGLPKAVCMNGTEAAQLSTKSRAEGRAPNPARKACSASSKIRRLSACKQQ

Variants of: B1
Assay: STK11 functional score (HeLa growth suppression), rescaled enrichment; synonymous median = 1, nonsense median = 0 (normalised score)
Conditions: with HeLa; variant type: missense
Summary of the method: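 HeLa cells carrying an AAVS1 landing pad received codon-optimised STK11 libraries made by codon randomisation (POPCode), integrated by Bxb1, with three regions each transfected three times. Integrants that were BFP-negative and mCherry-positive were sorted by FACS 4–5 days after electroporation and then grown for about two weeks. Tiled amplicons from gDNA were sequenced on NextSeq at ~2 million reads per tile. The functional score is a wild-type-corrected log ratio of post- to pre-selection counts, rescaled to the synonymous and nonsense medians, merged across codons and replicate transfections, and given a bootstrapped error.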

Row | Variant | STK11 functional score
1 | MEVVDPQQLGMFTEGELMSVGMDTFIHRIDSTEVIYQPRRKRAKLIGKYLMGDLLGEGSYGKVKEVLDSETLCRRAVKILKKKKLRRIPNGEANVKKEIQLLRRLRHKNVIQLVDVLYNEEKQKMYMVMEYCVCGMQEMLDSVNEKRFPVCQAHGYFCQLIDGLEYLHSQGIVHKDIKPGNLLLTTGGTLKISDLGVAEALHPFAADDTCRTSQGSPAFQPPEIANGLDTFSGFKVDIWSAGVTLYNITTGLYPFEGDNIYKLFENIGKGSYAIPGDCGPPLSDLLKGMLEYEPAKRFSIRQIRQHSWFRKKHPPAEAPVPIPPSPDTKDRWRSMTVVPYLEDLHGADEDEDLFDIEDDIIYTQDFTVPGQVPEEEASHNGQRRGLPKAVCMNGTEAAQLSTKSRAEGRAPNPARKACSASSKIRRLSACKQQ [P144N] | 1.53 ± 0.23
2 | MEVVDPQQLGMFTEGELMSVGMDTFIHRIDSTEVIYQPRRKRAKLIGKYLMGDLLGEGSYGKVKEVLDSETLCRRAVKILKKKKLRRIPNGEANVKKEIQLLRRLRHKNVIQLVDVLYNEEKQKMYMVMEYCVCGMQEMLDSVMEKRFPVCQAHGYFCQLIDGLEYLHSQGIVHKDIKPGNLLLTTGGTLKISDLGVAEALHPFAADDTCRTSQGSPAFQPPEIANGLDTFSGFKVDIWSAGVTLYNITTGLYPFEGDNIYKLFENIGKGSYAIPGDCGPPLSDLLKGMLEYEPAKRFSIRQIRQHSWFRKKHPPAEAPVPIPPSPDTKDRWRSMTVVPYLEDLHGADEDEDLFDIEDDIIYTQDFTVPGQVPEEEASHNGQRRGLPKAVCMNGTEAAQLSTKSRAEGRAPNPARKACSASSKIRRLSACKQQ [P144M] | 1.17 ± 0.64
3 | MEVVDPQQLGMFTEGELMSVGMDTFIHRIDSTEVIYQPRRKRAKLIGKYLMGDLLGEGSYGKVKEVLDSETLCRRAVKILKKKKLRRIPNGEANVKKEIQLLRRLRHKNVIQLVDVLYNEEKQKMYMVMEYCVCGMQEMLDSVREKRFPVCQAHGYFCQLIDGLEYLHSQGIVHKDIKPGNLLLTTGGTLKISDLGVAEALHPFAADDTCRTSQGSPAFQPPEIANGLDTFSGFKVDIWSAGVTLYNITTGLYPFEGDNIYKLFENIGKGSYAIPGDCGPPLSDLLKGMLEYEPAKRFSIRQIRQHSWFRKKHPPAEAPVPIPPSPDTKDRWRSMTVVPYLEDLHGADEDEDLFDIEDDIIYTQDFTVPGQVPEEEASHNGQRRGLPKAVCMNGTEAAQLSTKSRAEGRAPNPARKACSASSKIRRLSACKQQ [P144R] | 0.996 ± 0.22
4 | MEVVDPQQLGMFTEGELMSVGMDTFIHRIDSTEVIYQPRRKRAKLIGKYLMGDLLGEGSYGKVKEVLDSETLCRRAVKILKKKKLRRIPNGEANVKKEIQLLRRLRHKNVIQLVDVLYNEEKQKMYMVMEYCVCGMQEMLDSVSEKRFPVCQAHGYFCQLIDGLEYLHSQGIVHKDIKPGNLLLTTGGTLKISDLGVAEALHPFAADDTCRTSQGSPAFQPPEIANGLDTFSGFKVDIWSAGVTLYNITTGLYPFEGDNIYKLFENIGKGSYAIPGDCGPPLSDLLKGMLEYEPAKRFSIRQIRQHSWFRKKHPPAEAPVPIPPSPDTKDRWRSMTVVPYLEDLHGADEDEDLFDIEDDIIYTQDFTVPGQVPEEEASHNGQRRGLPKAVCMNGTEAAQLSTKSRAEGRAPNPARKACSASSKIRRLSACKQQ [P144S] | 0.825 ± 0.15
5 | MEVVDPQQLGMFTEGELMSVGMDTFIHRIDSTEVIYQPRRKRAKLIGKYLMGDLLGEGSYGKVKEVLDSETLCRRAVKILKKKKLRRIPNGEANVKKEIQLLRRLRHKNVIQLVDVLYNEEKQKMYMVMEYCVCGMQEMLDSVKEKRFPVCQAHGYFCQLIDGLEYLHSQGIVHKDIKPGNLLLTTGGTLKISDLGVAEALHPFAADDTCRTSQGSPAFQPPEIANGLDTFSGFKVDIWSAGVTLYNITTGLYPFEGDNIYKLFENIGKGSYAIPGDCGPPLSDLLKGMLEYEPAKRFSIRQIRQHSWFRKKHPPAEAPVPIPPSPDTKDRWRSMTVVPYLEDLHGADEDEDLFDIEDDIIYTQDFTVPGQVPEEEASHNGQRRGLPKAVCMNGTEAAQLSTKSRAEGRAPNPARKACSASSKIRRLSACKQQ [P144K] | 1.63 ± 0.2
6 | MEVVDPQQLGMFTEGELMSVGMDTFIHRIDSTEVIYQPRRKRAKLIGKYLMGDLLGEGSYGKVKEVLDSETLCRRAVKILKKKKLRRIPNGEANVKKEIQLLRRLRHKNVIQLVDVLYNEEKQKMYMVMEYCVCGMQEMLDSVTEKRFPVCQAHGYFCQLIDGLEYLHSQGIVHKDIKPGNLLLTTGGTLKISDLGVAEALHPFAADDTCRTSQGSPAFQPPEIANGLDTFSGFKVDIWSAGVTLYNITTGLYPFEGDNIYKLFENIGKGSYAIPGDCGPPLSDLLKGMLEYEPAKRFSIRQIRQHSWFRKKHPPAEAPVPIPPSPDTKDRWRSMTVVPYLEDLHGADEDEDLFDIEDDIIYTQDFTVPGQVPEEEASHNGQRRGLPKAVCMNGTEAAQLSTKSRAEGRAPNPARKACSASSKIRRLSACKQQ [P144T] | 1.18 ± 0.2
7 | MEVVDPQQLGMFTEGELMSVGMDTFIHRIDSTEVIYQPRRKRAKLIGKYLMGDLLGEGSYGKVKEVLDSETLCRRAVKILKKKKLRRIPNGEANVKKEIQLLRRLRHKNVIQLVDVLYNEEKQKMYMVMEYCVCGMQEMLDSVWEKRFPVCQAHGYFCQLIDGLEYLHSQGIVHKDIKPGNLLLTTGGTLKISDLGVAEALHPFAADDTCRTSQGSPAFQPPEIANGLDTFSGFKVDIWSAGVTLYNITTGLYPFEGDNIYKLFENIGKGSYAIPGDCGPPLSDLLKGMLEYEPAKRFSIRQIRQHSWFRKKHPPAEAPVPIPPSPDTKDRWRSMTVVPYLEDLHGADEDEDLFDIEDDIIYTQDFTVPGQVPEEEASHNGQRRGLPKAVCMNGTEAAQLSTKSRAEGRAPNPARKACSASSKIRRLSACKQQ [P144W] | 1.61 ± 0.15
8 | MEVVDPQQLGMFTEGELMSVGMDTFIHRIDSTEVIYQPRRKRAKLIGKYLMGDLLGEGSYGKVKEVLDSETLCRRAVKILKKKKLRRIPNGEANVKKEIQLLRRLRHKNVIQLVDVLYNEEKQKMYMVMEYCVCGMQEMLDSVQEKRFPVCQAHGYFCQLIDGLEYLHSQGIVHKDIKPGNLLLTTGGTLKISDLGVAEALHPFAADDTCRTSQGSPAFQPPEIANGLDTFSGFKVDIWSAGVTLYNITTGLYPFEGDNIYKLFENIGKGSYAIPGDCGPPLSDLLKGMLEYEPAKRFSIRQIRQHSWFRKKHPPAEAPVPIPPSPDTKDRWRSMTVVPYLEDLHGADEDEDLFDIEDDIIYTQDFTVPGQVPEEEASHNGQRRGLPKAVCMNGTEAAQLSTKSRAEGRAPNPARKACSASSKIRRLSACKQQ [P144Q] | 1.25 ± 0.34
9 | MEVVDPQQLGMFTEGELMSVGMDTFIHRIDSTEVIYQPRRKRAKLIGKYLMGDLLGEGSYGKVKEVLDSETLCRRAVKILKKKKLRRIPNGEANVKKEIQLLRRLRHKNVIQLVDVLYNEEKQKMYMVMEYCVCGMQEMLDSVLEKRFPVCQAHGYFCQLIDGLEYLHSQGIVHKDIKPGNLLLTTGGTLKISDLGVAEALHPFAADDTCRTSQGSPAFQPPEIANGLDTFSGFKVDIWSAGVTLYNITTGLYPFEGDNIYKLFENIGKGSYAIPGDCGPPLSDLLKGMLEYEPAKRFSIRQIRQHSWFRKKHPPAEAPVPIPPSPDTKDRWRSMTVVPYLEDLHGADEDEDLFDIEDDIIYTQDFTVPGQVPEEEASHNGQRRGLPKAVCMNGTEAAQLSTKSRAEGRAPNPARKACSASSKIRRLSACKQQ [P144L] | 0.658 ± 0.083
10 | MEVVDPQQLGMFTEGELMSVGMDTFIHRIDSTEVIYQPRRKRAKLIGKYLMGDLLGEGSYGKVKEVLDSETLCRRAVKILKKKKLRRIPNGEANVKKEIQLLRRLRHKNVIQLVDVLYNEEKQKMYMVMEYCVCGMQEMLDSVVEKRFPVCQAHGYFCQLIDGLEYLHSQGIVHKDIKPGNLLLTTGGTLKISDLGVAEALHPFAADDTCRTSQGSPAFQPPEIANGLDTFSGFKVDIWSAGVTLYNITTGLYPFEGDNIYKLFENIGKGSYAIPGDCGPPLSDLLKGMLEYEPAKRFSIRQIRQHSWFRKKHPPAEAPVPIPPSPDTKDRWRSMTVVPYLEDLHGADEDEDLFDIEDDIIYTQDFTVPGQVPEEEASHNGQRRGLPKAVCMNGTEAAQLSTKSRAEGRAPNPARKACSASSKIRRLSACKQQ [P144V] | 0.879 ± 0.22
11 | MEVVDPQQLGMFTEGELMSVGMDTFIHRIDSTEVIYQPRRKRAKLIGKYLMGDLLGEGSYGKVKEVLDSETLCRRAVKILKKKKLRRIPNGEANVKKEIQLLRRLRHKNVIQLVDVLYNEEKQKMYMVMEYCVCGMQEMLDSVPCKRFPVCQAHGYFCQLIDGLEYLHSQGIVHKDIKPGNLLLTTGGTLKISDLGVAEALHPFAADDTCRTSQGSPAFQPPEIANGLDTFSGFKVDIWSAGVTLYNITTGLYPFEGDNIYKLFENIGKGSYAIPGDCGPPLSDLLKGMLEYEPAKRFSIRQIRQHSWFRKKHPPAEAPVPIPPSPDTKDRWRSMTVVPYLEDLHGADEDEDLFDIEDDIIYTQDFTVPGQVPEEEASHNGQRRGLPKAVCMNGTEAAQLSTKSRAEGRAPNPARKACSASSKIRRLSACKQQ [E145C] | 1.41 ± 0.52
12 | MEVVDPQQLGMFTEGELMSVGMDTFIHRIDSTEVIYQPRRKRAKLIGKYLMGDLLGEGSYGKVKEVLDSETLCRRAVKILKKKKLRRIPNGEANVKKEIQLLRRLRHKNVIQLVDVLYNEEKQKMYMVMEYCVCGMQEMLDSVPFKRFPVCQAHGYFCQLIDGLEYLHSQGIVHKDIKPGNLLLTTGGTLKISDLGVAEALHPFAADDTCRTSQGSPAFQPPEIANGLDTFSGFKVDIWSAGVTLYNITTGLYPFEGDNIYKLFENIGKGSYAIPGDCGPPLSDLLKGMLEYEPAKRFSIRQIRQHSWFRKKHPPAEAPVPIPPSPDTKDRWRSMTVVPYLEDLHGADEDEDLFDIEDDIIYTQDFTVPGQVPEEEASHNGQRRGLPKAVCMNGTEAAQLSTKSRAEGRAPNPARKACSASSKIRRLSACKQQ [E145F] | 0.968 ± 0.087
13 | MEVVDPQQLGMFTEGELMSVGMDTFIHRIDSTEVIYQPRRKRAKLIGKYLMGDLLGEGSYGKVKEVLDSETLCRRAVKILKKKKLRRIPNGEANVKKEIQLLRRLRHKNVIQLVDVLYNEEKQKMYMVMEYCVCGMQEMLDSVPAKRFPVCQAHGYFCQLIDGLEYLHSQGIVHKDIKPGNLLLTTGGTLKISDLGVAEALHPFAADDTCRTSQGSPAFQPPEIANGLDTFSGFKVDIWSAGVTLYNITTGLYPFEGDNIYKLFENIGKGSYAIPGDCGPPLSDLLKGMLEYEPAKRFSIRQIRQHSWFRKKHPPAEAPVPIPPSPDTKDRWRSMTVVPYLEDLHGADEDEDLFDIEDDIIYTQDFTVPGQVPEEEASHNGQRRGLPKAVCMNGTEAAQLSTKSRAEGRAPNPARKACSASSKIRRLSACKQQ [E145A] | 0.952 ± 0.13
14 | MEVVDPQQLGMFTEGELMSVGMDTFIHRIDSTEVIYQPRRKRAKLIGKYLMGDLLGEGSYGKVKEVLDSETLCRRAVKILKKKKLRRIPNGEANVKKEIQLLRRLRHKNVIQLVDVLYNEEKQKMYMVMEYCVCGMQEMLDSVPDKRFPVCQAHGYFCQLIDGLEYLHSQGIVHKDIKPGNLLLTTGGTLKISDLGVAEALHPFAADDTCRTSQGSPAFQPPEIANGLDTFSGFKVDIWSAGVTLYNITTGLYPFEGDNIYKLFENIGKGSYAIPGDCGPPLSDLLKGMLEYEPAKRFSIRQIRQHSWFRKKHPPAEAPVPIPPSPDTKDRWRSMTVVPYLEDLHGADEDEDLFDIEDDIIYTQDFTVPGQVPEEEASHNGQRRGLPKAVCMNGTEAAQLSTKSRAEGRAPNPARKACSASSKIRRLSACKQQ [E145D] | 1.11 ± 0.28
